One may read the stoichiometry N as a count of units in the complex or per binding partner.

The series deals with the molecule itself. Description: mass photometry.

B1: MERS-CoV main protease (M^pro) (enzyme)
chain: SGLVKMSHPSGDVEACMVQVTCGSMTLNGLWLDNTVWCPRHVMCPADQLSDPNYDALLISMTNHSFSVQKHIGAPANLRVVGHAMQGTLLKLTVDVANPSTPAYTFTTVKPGAAFSVLACYNGRPTGTFTVVMRPNYTIKGSFLCGSCGSVGYTKEGSVINFCYMHQMELANGTHTGSAFDGTMYGAFMDKQVHQVQLTDKYCSVNVVAWLYAAILNGCAWFVKPNRTSVVSFNEWALANQFTEFVGTQSVDMLAVKTGVAIEQLLYAIQQLYTGFQGKQILGSTMLEDEFTPEDVNMQIMGVVMQ
On to B1, for which the “stoichiometry N” value was found to be 2.

The record behind these values is publication PMC11350714 (JACS Au, 2024).
